Experiments:
[1] = target: soluble type I collagen (acid-soluble type I atelocollagen from bovine hides) (bovine) (UniProt P02453); test: ELISA
[2] = target: type I gelatin (heat-denatured acid-soluble type I atelocollagen from bovine hides) (bovine) (UniProt P02453); test: ELISA
[3] = target: V-domain of Scl2.3 (Streptococcus pyogenes); test: SDS-PAGE

Sequence of type I gelatin (heat-denatured acid-soluble type I atelocollagen from bovine hides) (bovine) (P02453 162-1217, chain 1 of 2): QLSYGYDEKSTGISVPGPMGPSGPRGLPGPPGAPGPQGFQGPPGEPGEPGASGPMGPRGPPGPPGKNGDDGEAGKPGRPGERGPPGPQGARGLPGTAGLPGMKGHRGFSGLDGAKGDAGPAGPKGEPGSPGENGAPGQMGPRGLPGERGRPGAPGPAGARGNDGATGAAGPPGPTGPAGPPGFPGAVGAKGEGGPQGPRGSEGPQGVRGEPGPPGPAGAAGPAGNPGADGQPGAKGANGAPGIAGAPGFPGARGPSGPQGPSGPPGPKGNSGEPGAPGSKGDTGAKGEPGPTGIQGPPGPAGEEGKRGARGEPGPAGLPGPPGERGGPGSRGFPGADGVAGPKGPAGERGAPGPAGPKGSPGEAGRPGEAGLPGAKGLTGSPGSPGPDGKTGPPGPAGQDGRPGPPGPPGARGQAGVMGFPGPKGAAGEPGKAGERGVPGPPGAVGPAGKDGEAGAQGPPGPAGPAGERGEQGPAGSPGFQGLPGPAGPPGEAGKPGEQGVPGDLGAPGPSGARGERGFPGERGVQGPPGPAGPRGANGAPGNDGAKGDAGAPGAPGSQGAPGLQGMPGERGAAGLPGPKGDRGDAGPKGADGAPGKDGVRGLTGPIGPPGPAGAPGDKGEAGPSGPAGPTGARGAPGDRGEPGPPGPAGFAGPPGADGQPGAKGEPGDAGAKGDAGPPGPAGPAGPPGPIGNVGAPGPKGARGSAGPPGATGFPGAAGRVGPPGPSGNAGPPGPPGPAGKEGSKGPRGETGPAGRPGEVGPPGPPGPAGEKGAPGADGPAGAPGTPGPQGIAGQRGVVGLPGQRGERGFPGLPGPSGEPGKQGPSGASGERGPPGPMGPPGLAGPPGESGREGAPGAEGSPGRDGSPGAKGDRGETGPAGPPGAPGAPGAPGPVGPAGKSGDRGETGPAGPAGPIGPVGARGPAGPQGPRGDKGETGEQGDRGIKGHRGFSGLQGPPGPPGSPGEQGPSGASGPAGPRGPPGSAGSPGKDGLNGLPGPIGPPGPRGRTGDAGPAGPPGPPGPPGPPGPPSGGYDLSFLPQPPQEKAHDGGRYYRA
Sequence of type I gelatin (heat-denatured acid-soluble type I atelocollagen from bovine hides) (bovine) (P02465 80-1117, chain 2 of 2, further chain): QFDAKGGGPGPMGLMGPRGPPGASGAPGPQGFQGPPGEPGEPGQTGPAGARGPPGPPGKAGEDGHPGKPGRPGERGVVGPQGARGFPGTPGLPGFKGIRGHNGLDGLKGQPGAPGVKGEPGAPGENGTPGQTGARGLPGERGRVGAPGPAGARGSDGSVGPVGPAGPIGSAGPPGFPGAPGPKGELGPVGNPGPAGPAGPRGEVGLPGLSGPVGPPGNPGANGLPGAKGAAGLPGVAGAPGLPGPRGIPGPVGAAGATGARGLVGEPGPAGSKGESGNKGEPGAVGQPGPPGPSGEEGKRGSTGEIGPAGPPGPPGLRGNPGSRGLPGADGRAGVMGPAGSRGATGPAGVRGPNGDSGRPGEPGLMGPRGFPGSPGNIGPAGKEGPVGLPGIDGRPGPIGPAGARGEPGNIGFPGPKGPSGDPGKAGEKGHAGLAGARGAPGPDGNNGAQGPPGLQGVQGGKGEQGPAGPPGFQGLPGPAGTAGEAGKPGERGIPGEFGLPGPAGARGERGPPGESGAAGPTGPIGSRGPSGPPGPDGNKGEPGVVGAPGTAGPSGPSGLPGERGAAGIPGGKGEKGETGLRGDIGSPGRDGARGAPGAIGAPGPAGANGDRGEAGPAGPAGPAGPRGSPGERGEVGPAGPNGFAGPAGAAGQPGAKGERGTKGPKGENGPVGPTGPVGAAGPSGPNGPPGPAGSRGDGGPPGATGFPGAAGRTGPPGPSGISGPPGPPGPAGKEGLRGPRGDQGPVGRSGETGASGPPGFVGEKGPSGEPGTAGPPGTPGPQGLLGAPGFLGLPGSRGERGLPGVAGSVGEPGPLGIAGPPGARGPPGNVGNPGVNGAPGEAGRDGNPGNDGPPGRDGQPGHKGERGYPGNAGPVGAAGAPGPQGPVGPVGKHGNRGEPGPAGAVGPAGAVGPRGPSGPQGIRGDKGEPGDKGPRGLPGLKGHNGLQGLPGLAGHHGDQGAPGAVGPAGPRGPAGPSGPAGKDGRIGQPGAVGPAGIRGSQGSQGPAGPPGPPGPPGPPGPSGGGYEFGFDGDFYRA
Sequence of soluble type I collagen (acid-soluble type I atelocollagen from bovine hides) (bovine) (P02453 162-1217, chain 1 of 2): as the sequence (P02453 162-1217, chain 1 of 2) above
Sequence of soluble type I collagen (acid-soluble type I atelocollagen from bovine hides) (bovine) (P02465 80-1117, chain 2 of 2, further chain): as the sequence (P02465 80-1117, chain 2 of 2, further chain) above

Substance: ColQ1-CU G472V F176A (domain or fragment)
- fold increase in affinity against ColQ1-CU G472V (WT) [1]: 20 fold

Substance: ColQ1-CU G472V R169A (domain or fragment)
- fold increase in affinity against ColQ1-CU G472V (WT) [1]: 9 fold

Substance: ColG-PD E524A (D398-G790) (domain or fragment)
- Kd [2]: 243000 nM
- Kd [1]: 497000 nM

Substance: ColQ1-CU G472V Y173A (domain or fragment)
- fold drop in binding affinity against ColQ1-CU G472V (WT) [2]: 15 fold

Substance: ColQ1-CU G472V N226A (domain or fragment)
- fold drop in binding affinity against ColQ1-CU G472V (WT) [2]: 90 fold
- fold reduction in binding affinity against ColQ1-CU G472V (WT) [1]: > 90 fold

Substance: ColQ1-CU G472V Y270A (domain or fragment)
- fold increase in affinity against ColQ1-CU G472V (WT) [1]: 8 fold

Substance: ColQ1-CU G472V (domain or fragment)
- Kd [2]: 1600 nM
- Kd [1]: 1600 nM

Substance: ColG-CU E524A (Y119-G790) (domain or fragment)
- Kd [2]: 80 nM
- Kd [1]: 370 nM

Substance: V-domain of Scl2.3 (domain or fragment)
- stoichiometry N [3]: 3
